Measurements: the supplement of paper PMC9170038

System: MS2 coat protein
Test: apparent KD of MS2 coat protein; designed switch direction (-1 OFF switch, 1 ON switch): -1; higher = weaker reporter binding
Procedure, shortened: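 Designed RNA switches with common flanks were made on Illumina chips by stalled E. coli RNA polymerase. Titration with SNAP-549-labelled MS2 coat protein doubled from 0.7 or 1.5 nM up to 3 µM. Apparent KD is each design's median over clusters after curve-fitting normalised fluorescence.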

[1] = input ligand: microRNA oligo, concentration not stated
[2] = Eterna round: R95, input ligand: FMN 200 uM
[3] = Eterna round: R95, input ligand: microRNA oligo, concentration not stated
[4] = Eterna round: R95, input ligand: none

| Sequence | apparent KD of MS2 coat protein (input ligand: FMN 200 uM) | apparent KD of MS2 coat protein (input ligand: none) | apparent KD of MS2 coat protein [1] | apparent KD of MS2 coat protein [2] | apparent KD of MS2 coat protein [3] | apparent KD of MS2 coat protein [4] |
| --- | --- | --- | --- | --- | --- | --- |
| AAUACAAGCUAUUGAUCCCACAUGAGGAUCACCCAUGUAUAUGCCGGUGACACCUGCAUGACGAUAGCUCGUCUUAU [Sensor-V1 #59] (Eterna round: R97, puzzle: Sensor, turn-off variant 1) | 577 nM | 758 nM | – | – | – | – |
| UACAUGAGGAUCACCCAUGUUUUGUCGUGUAUGGUAUUUAUCUAGGAUAUCAAUUGAGUUAUUUAUGAGAAGGAGAAUAUUAAU [JMF's solution 59] (Eterna round: R96, puzzle: Exclusion NG 3) | – | – | 31.6 nM | – | – | – |
| UUUUAGAGAGGAUAUAUUUAGUGAAACAUGAGGAUCACCCAUGUAAUUAAAUGGAUGUAAAUAGAAGGCUCAUUUA [Mat - Exclusion 5 - JL mod - D6] (puzzle: Exclusion 5) | – | – | – | 22.9 nM | 23.7 nM | 26.4 nM |
| GUAUGUGAGAGAGGAUAUCGUGUACAAAGUACACGAGAAGGCUUCACAUGAGGAUCACCCAUGUACCGAGGUGAAACACCUUGA [Omei Exc(NG)1 Bv9] (Eterna round: R96, puzzle: Exclusion NG 1) | 1870 nM | 423 nM | 298 nM | – | – | – |
| AACCAGCGAGGAUAUGCUUGCGCUUGUUCUGGUUAUAAUCGACUUGAGGAUCACCCAAGUAGAAGGUGCUGGCG [EX2 #56] (Eterna round: R97, puzzle: Exclusion 2) | 28.7 nM | 22.5 nM | – | – | – | – |
| UUCUUACAUGAGGAUCACCCAUGUCAGGAUAUCUCCUCACUGCGCUUGCGCAGUGGAUAGAGAAGGGACAGGCU [JL ViennaUCT Aner mod 3] (puzzle: Exclusion 1) | – | – | – | – | 43.1 nM | – |
| CUAUUGGCAGGAUAUGCUUUUUUAGACAUGAGGAUCACCCAUGUGAUGAAUUUUGGGUUUGCAGAAGGGCCUGAGU [JR_E5_Sub038] (puzzle: Exclusion 5) | – | – | – | – | 56.6 nM | – |
| AGAUGUAGAUACCGAUCCUACAUGAGGAUCACCCAUGUAGCUAGACGUGCUCGCGUCGCUCGUCAGACUACCAGUAG [salish99_TOv1_r3_089] (puzzle: Sensor v3, turn-off variant 1) | – | – | – | 267 nM | 199 nM | 259 nM |
| GCAUGUCUUAAGGAUAUGCUAAGGCGUGAGCCGGCAGAAGGUAAGACAUGAGGAUCACCCAUGUUUUCCUAAAA [jl-ex6-4.32 ViennaUCT mod] (Eterna round: R97, puzzle: Exclusion 6) | 91.3 nM | 20.7 nM | – | – | – | – |
| GAGUGACAUGAGGAUCACCCAUGUGAGGAUAUCGGACGGACCUUGUUAGCUUCCGCCGCGAGAAGGCACAUCGG [Exclusion 1 V25] (puzzle: Exclusion 1) | – | – | – | – | 94.3 nM | – |
| AGCCAAGCAGGAUAUGCCCGUAAUAACAUGAGGAUCACCCAUGUGACCGAUUUAUGUUCUGCAGAAGGGCUUGGAA [LRO-Excl5-12-mod of Erxesoan mod by Eli Fisker] (Eterna round: R97, puzzle: Exclusion 5) | 91.3 nM | 24.8 nM | – | – | – | – |
| AAGAAAGACGAAGGAUAUUCAGGCGCCGAAGUAGAAGAAGGUCGUCCGGGUGUCCUAAAACUUGAGGAUCACCCAAGUAGAAGA [Mutated MS2 EX1.2] (Eterna round: R96, puzzle: Exclusion NG 1) | 62.1 nM | 25.5 nM | 6.43 nM | – | – | – |
| ACAAGCUUUUAGAUUCUUAACAUGAGGAUCACCCAUGUGCUCGUCUUAUUUUCCGGCGGGCCGCCGGAAAAGCUUGU (Eterna round: R97, puzzle: Sensor, turn-off variant 1) | 92.5 nM | 93.8 nM | – | – | – | – |
| UUUAAACAUGAGGAUCACCCAUGUGAGGAUAUACGAAUGCAGACACACACGGAUGCAAGUAGAAGGCACAACGC [Design #11] (Eterna round: R97, puzzle: Exclusion 1) | 29.4 nM | 25 nM | – | – | – | – |
| CCUUAUUAUCGAGGAUAUCCUAUUGAAAUUCUGGGAGAAGGCGGACUCAACAUGAGGAUCACCCAUGUGGGACGGAUGCUAGGA [salish99_exng1_r04_603] (Eterna round: R96, puzzle: Exclusion NG 1) | 21 nM | 20.2 nM | 13.5 nM | – | – | – |
| CUGUGCACGCUGCGGUCCUACAUGAGGAUCACCCAUGUGGUCUGGUGGCGUGGGUCGCCGGACUUGGCUCGUCUUGU [salish99_S_TOV1_R5_024] (Eterna round: R97, puzzle: Sensor, turn-off variant 1) | 18.2 nM | 19.3 nM | – | – | – | – |
| GCCUCACAUGAGGAUCACCCAUGUCAGGAUAUCUAACGCGAGGUGCAGGCACUUCGUGAGAGAAGGGACGUCAA [Iszabius] (puzzle: Exclusion 1) | – | – | – | – | 19.4 nM | – |

| Sequence | apparent KD of MS2 coat protein (input ligand: FMN 200 uM) | apparent KD of MS2 coat protein (input ligand: none) | apparent KD of MS2 coat protein [1] | apparent KD of MS2 coat protein [2] | apparent KD of MS2 coat protein [3] | apparent KD of MS2 coat protein [4] |
| --- | --- | --- | --- | --- | --- | --- |
| AGAUCACAUGAGGAUCACCCAUGUGAGGAUAUGGACUGAAGAGCUUCGGCUCUUCAGUCCAGAAGGCACAAUGA [EX1 #43] (Eterna round: R97, puzzle: Exclusion 1) | 40.7 nM | 28.9 nM | – | – | – | – |
| CUUGUGUUAGGAUAUGUUAAGCCACCAACCAGUGGAUCAGGACAGAAGGAACAUGAGGAUCACCCAUGUAAAAG [Inedar] (Eterna round: R97, puzzle: Exclusion 4) | 25.3 nM | 67.4 nM | – | – | – | – |
| AUCAGCUCGUCAGGAUAUGCACAUGAGGAUCACCCAUGUAAGAUCAAGCUGCUUCGGCAGCAAGUGCAGAAGGGACGAGCUGAU [ENG2/9-B2] (Eterna round: R96, puzzle: Exclusion NG 2) | 151 nM | 229 nM | 177 nM | – | – | – |
| CUAAAUCAUGUAGGAUAUGCGUGGCGAAGCUAUGCAGAAGGACAUGAGGAUCACCCAUGUCAUUCCGUCUGCGUACAGACGGGA [Mat - Exclusion NG 1 - Mod of JL - D48] (Eterna round: R96, puzzle: Exclusion NG 1) | 133 nM | 28.6 nM | 21 nM | – | – | – |
| ACAGGUGCAGGAUAUACAUGAGGAUCACCCAUGUAGAUCAACCAGCGAUAGCUGGAAUGUAGAAGGGCACCUGU [E3/5-D1] (Eterna round: R97, puzzle: Exclusion 3) | 94.4 nM | 18.5 nM | – | – | – | – |
| AAAUCACAUGAGGAUCACCCAUGUGAGGAUAUGAUACUAUGUACUUCGGUACAUAGUAUCAGAAGGCAUGUGGA [Ex1-3: 89] (Eterna round: R96, puzzle: Exclusion 1) | 43.1 nM | 29.5 nM | 22.6 nM | – | – | – |
| ACAUGAGGAUCACCCAUGUAAACAUAAUGGCUGAUGUAGAGUCAGGAUAUGUGUGGCUAACAAUCGCAGAAGGGACAAGACUGG [Deportation 31 - Jieux - Exclusion NG 3] (Eterna round: R96, puzzle: Exclusion NG 3) | 23.5 nM | 31.8 nM | 19.2 nM | – | – | – |
| AUAAUGUGAGGAUAUCACGGCCCGAUGAGUACGGUAAACGAUGAGAAGGCACAUGAGGAUCACCCAUGUUCCUG [EX4 A.15] (Eterna round: R97, puzzle: Exclusion 4) | 47.8 nM | 11.4 nM | – | – | – | – |
| CGCAACACAUGAGGAUCAAACAUGAGGAUCACCCAUGUAAAACAAGCUUUUUGCUCGUCUUAUAAAUAUGUGUUGCG [Electric Eye 1 - Jieux - Sensor, turn-off variant 1] (Eterna round: R97, puzzle: Sensor, turn-off variant 1) | 18.4 nM | 21 nM | – | – | – | – |
| CUCAAGUUAGGAUAUCCAAACGACACGUGCGGACGUUCAACGGAGAAGGGACUUGAGGAUCACCCAAGUUAAAA [Riusbireis] (Eterna round: R97, puzzle: Exclusion 4) | 137 nM | 45 nM | – | – | – | – |
| AAGGGUGCUUUCGGAACGACAUGAGGAUCACCCAUGUAGACUGAGGAUAUCUACUUCUAAGGACGGGAGAAGGCAGUGUAAUGU [Ex NG3 #70] (Eterna round: R96, puzzle: Exclusion NG 3) | 44.5 nM | 39.8 nM | 29 nM | – | – | – |
| CUUUAGCAAGCGAGAUCCCACAUGAGGAUCACCCAUGUGCAUCCAGAAUUACUGGGUGCAAAAGCUCGUCUUAUAUC [mod-Eli newdang-1b] (Eterna round: R97, puzzle: Sensor, turn-off variant 1) | 58.4 nM | 62.6 nM | – | – | – | – |
| GCGAGCUGAGGAUAUACAUGAGGAUCACCCAUGUAUUUUGGAAGACUGCCUCCUGCACGUAGAAGGCGGCUCUU [Eternabot (L2) Solution 35] (Eterna round: R97, puzzle: Exclusion 3) | 24.4 nM | 24.7 nM | – | – | – | – |
| AAAGAAGAGAGAAAAUAACACAUGAGGAUCACCCAUGUGAGAAGUUGAGGGUGAUACAGGCUUUUUGCUCGUCUUAU (puzzle: Sensor v3, turn-off variant 1) | – | – | – | 233 nM | 263 nM | 332 nM |
| GGUACUCAAAGAGUACCAAUACGAACAUGAGGAUCACCCAUGUAGGAUAUGCUACUCAAAGAGUAGCAGAAGGAUAUGAUGAAU [Far Half Aptamer v16] (Eterna round: R96, puzzle: Exclusion NG 3) | 41.1 nM | 40.2 nM | 30.8 nM | – | – | – |
| ACAUGUCAUCGAGGAUAUUGGACACAUGAGGAUCACCCAUGUACUCGGAGGCUCUACCAUGAGUUCGAGAAGGCGAUGUACAUU [Ex NG2 #77] (Eterna round: R96, puzzle: Exclusion NG 2) | 542 nM | 230 nM | 256 nM | – | – | – |
| GGAAAACAUGAGGAUCACCCAUGUAAGGAUAUGCAAAAGGAUAUAGAAGGAAGAAAAAGCAGAAGGUACAAAGG [salish99-ex1_r3_099] (puzzle: Exclusion 1) | – | – | – | 72.1 nM | 44.8 nM | 57.9 nM |
